Results from patent publication US10555972 (INNOPEUTICS, dated 2020).

Molecular target: T1, Nuclear receptor-related factor 1 (Nurr1) (mouse, UniProt Q06219 1-598)
T1 construct: Endogenous transcription factor in mouse ventral midbrain lysates (IP) or frozen tissue sections (PLA); not a recombinant construct; also called NR4A2
Experiment: reciprocal co-immunoprecipitation and Western blot, midbrain lysates of 10-week-old mice
Experimental: Interaction between Nurr1 and Foxa2 (in mouse VM tissues at 10 weeks of age) was assessed by an IP. Tissues were lysed in IP lysis buffer (Thermo Scientific, Waltham, Mass.) supplemented with protease inhibitors. Lysates were incubated with an anti-Nurr1 antibody (1:1,000, mouse, R&D Systems) or an anti-Foxa2 antibody (1:1,000, goat, Santa Cruz Biotechnology) at 4° C. for 18-24 hours. The mixtures were shaken with magnetic beads (Life Technologies) at room temperature for 1-2 hours. After washing, immunoprecipitated proteins were eluted in a sample buffer and subjected to a Western blot analysis using an anti-Foxa2 antibody (1:1,000, goat, Cell Signaling Technology) or an anti-Nurr1 antibody (1:500, mouse, R&D Systems).
Close physical interaction of these two proteins was confirmed by an in situ proximity ligation assay (PLA), which allows visualization of protein-protein binding by red fluorescence (554 nm) emanating from two proteins in close proximity (FIG. 2E).

T1 sequence (Q06219 whole entry): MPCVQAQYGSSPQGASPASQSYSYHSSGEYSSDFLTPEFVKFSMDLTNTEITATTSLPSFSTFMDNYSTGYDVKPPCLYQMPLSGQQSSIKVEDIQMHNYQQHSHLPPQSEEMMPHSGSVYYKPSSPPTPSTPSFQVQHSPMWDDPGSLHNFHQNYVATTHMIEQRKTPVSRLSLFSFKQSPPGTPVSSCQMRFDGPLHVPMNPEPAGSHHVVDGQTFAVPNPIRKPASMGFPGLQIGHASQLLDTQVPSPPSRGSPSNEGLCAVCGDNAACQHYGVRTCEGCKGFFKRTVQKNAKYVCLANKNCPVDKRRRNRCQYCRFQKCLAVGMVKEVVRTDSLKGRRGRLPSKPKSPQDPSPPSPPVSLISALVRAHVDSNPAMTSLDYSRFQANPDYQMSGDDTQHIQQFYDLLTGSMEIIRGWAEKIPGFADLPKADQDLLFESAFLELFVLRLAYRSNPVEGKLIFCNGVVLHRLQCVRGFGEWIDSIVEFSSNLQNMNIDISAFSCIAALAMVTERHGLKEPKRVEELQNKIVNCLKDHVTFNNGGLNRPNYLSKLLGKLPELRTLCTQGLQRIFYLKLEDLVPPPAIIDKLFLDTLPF

B1: forkhead box protein A2 (Foxa2) (other, mouse, UniProt P35583 1-459, looked up)
chain: MLGAVKMEGHEPSDWSSYYAEPEGYSSVSNMNAGLGMNGMNTYMSMSAAAMGGGSGNMSAGSMNMSSYVGAGMSPSLAGMSPGAGAMAGMSGSAGAAGVAGMGPHLSPSLSPLGGQAAGAMGGLAPYANMNSMSPMYGQAGLSRARDPKTYRRSYTHAKPPYSYISLITMAIQQSPNKMLTLSEIYQWIMDLFPFYRQNQQRWQNSIRHSLSFNDCFLKVPRSPDKPGKGSFWTLHPDSGNMFENGCYLRRQKRFKCEKQLALKEAAGAASSGGKKTAPGSQASQAQLGEAAGSASETPAGTESPHSSASPCQEHKRGGLSELKGAPASALSPPEPAPSPGQQQQAAAHLLGPPHHPGLPPEAHLKPEHHYAFNHPFSINNLMSSEQQHHHSHHHHQPHKMDLKAYEQVMHYPGGYGSPMPGSLAMGPVTNKAGLDASPLAADTSYYQGVYSRPIMNSS
notes: Endogenous transcription factor in mouse ventral midbrain lysates (IP) or frozen tissue sections (PLA); not a recombinant construct
binding result: binds
